Test results published in paper PMC9051087.
Where “and” joins values, the source holds several entries; their conditions need not be identical. Equal values may be shown once. Values belong to the substance of their own block, whether it stands above or below them.

What was measured:
[1] = target: PbHARP A118E/A121E mutant (Planctomycetes bacterium GWF2_40_8); assay: SEC; PbHARP wild type and mutants; Superdex 200 Increase 10/300 GL, 20 mM Tris-HCl pH 8.0, 300–500 mM salt for the wild type (it precipitates at lower salt); 300 ug protein, 0.4 mL/min
[2] = target: Planctomycetes bacterium HARP (homolog of Aquifex RNase P) (Planctomycetes bacterium GWF2_40_8); assay: cross-linking; BS3 (0, 0.01, 0.03 mM), 25 °C 1 h, 37.6 uM PbHARP without or with 45.1 uM His-7bp pre-tRNA and 10 mM CaCl2; 20 mM HEPES pH 7.9, 500 mM NaCl; SDS-PAGE
[3] = target: Planctomycetes bacterium HARP (homolog of Aquifex RNase P) (Planctomycetes bacterium GWF2_40_8); assay: SEC; PbHARP wild type and mutants; Superdex 200 Increase 10/300 GL, 20 mM Tris-HCl pH 8.0, 300–500 mM salt for the wild type (it precipitates at lower salt); 300 ug protein, 0.4 mL/min
[4] = target: Thermococcus celer HARP (Thermococcus celer); assay: SEC; TcHARP at higher salt (200–500 mM); Superdex 200 Increase 10/300 GL, 20 mM Tris-HCl pH 8.0

stoichiometry N [1]: 2
Substance: PbHARP A118E/A121E mutant (enzyme)

stoichiometry N [2]: 2 and 4
stoichiometry N [3]: 2
Substance: Planctomycetes bacterium HARP (homolog of Aquifex RNase P) (enzyme)

stoichiometry N [4]: 2
Substance: Thermococcus celer HARP (enzyme)
